Measurements: the RNAGym collection of RNA variant scans (doi:10.1073/pnas.2313332121)
Variants at the floor of the assay were thinned out.

B1: TPR 5TU (parent)
chain: GGAUCUUCUCGAUCUAACAAAAAAGACAAAUCUGCCACAAAGCUUGAGAGCAUCUUCGGAUGCAGAGGCGGCAGCCUUCGGUGGCGCGAUAGCGCCAACGUUCUCAACUAUGACACGCAAAACGCGUGCUCCGUUGAAUGGAGUUUAUCAUG

Variants of: B1
Test: polymerase ribozyme fitness, log enrichment relative to wild type (log ratio); higher = more active; in vitro selection for triplet polymerase activity
Procedure, shortened: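 PCR was used to build mutant libraries for each subunit of a heterodimeric triplet polymerase ribozyme, which were then transcribed. A single in vitro selection round, in triplicate, used a frozen incubation at −7 °C and recovered extended constructs by gel excision, streptavidin beads and RT-PCR. Fitness is the logarithm of genotype enrichment relative to wild-type enrichment, averaged over replicates with inverse-variance weights. The logarithm is base 2, and after Illumina sequencing only genotypes with ≥10 input reads and ≥1 read per output were kept.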

Variant	polymerase ribozyme fitness (log ratio)
U13C C18G C35G A40G C63A A91U C118U C132U A150U	≤ -4.2
A12C A19U G80U A89G C96A	≤ -4.2
G11C C32G C54U C57U C79G C87G A110G	≤ -4.2
G11U G84A U144G	0.53
G11C U31A A40U	-0.204
A12G A40G A41C G65A C85U A107G C123G G152A	≤ -4.2
U13A C93U	-0.77
A12U A19C U82C C129G	-3.41
A12U C36U	-2.21
U13A A37C C57A G126U	-1.66
U13G A20C C27U U61A C99A	≤ -4.2
A12G A16G U31A C125A U145C	-0.993
A12C A21G A122G G140U	-4.13
U13C C51U G59C G92U A115G G143C	-3.61
A12G U33A A39C G65A G70C C96G A119U C129A U135G	≤ -4.2
A12U A24U G81U G84A	0.337
A12C C51U C85A A150U	-0.931
G11U A29C C35U U45A A66G A91U	-3.98
G11U A19U G81U C95U	-1.81
A12G C36U A37C G59C U102A C118G A120C U146A	≤ -4.2
G11A U55G U56A U102A	-3.42
A12U A41C U55G A66G G88U G94U U134A G136C U151A	≤ -4.2
G11A C85A A121U C149U	-2.75
U13C A16U U33A C54G G67C G133U U144A	≤ -4.2

Variant	polymerase ribozyme fitness (log ratio)
U13A G58U C96A A120U U145C	-1.29
U13C G88U	-3.96
A12C A29C G81U C87A	≤ -4.2
G11A C123U A142U	-1.6
U13C A41U U55A C96U C118A	-2.88
A12G U55A G84A G117U	-0.697
G11U U31A A60G C93A	-3.94
C10U U90G C116G	-3.83
G11A A16U A21U A60U C63A C85A G126U	≤ -4.2
A12C A119G	-0.0231
G11A U45A G46C G80C C87A	≤ -4.2
A12U A29G A37U A47U U55A G84U A89G A120C G140C U144G	≤ -4.2
G11A A17C A20C A22U G46U C85U	-3.03
A12U A21C A52C C85U	-1.19
G11C G25C A41C U78A C99G	-4.09
A12G U56A	-0.197
U13C G62C C99A U148G	≤ -4.2
A12G A52C G59A	-1.78
A12G C18G A21U G68C G83A A97U C125U G140U G143U	≤ -4.2
A12C G59C C87A A107G A115U A150U	≤ -4.2
U13G A49C G152U	≤ -4.2
A12C A22C U82A G126A	0.264
U13G A47G G48A A89C C93U C99G	≤ -4.2
A12U A21G C95U C99A G126A C132U	-3.58

Variant	polymerase ribozyme fitness (log ratio)
A12U U13A A91G C93A U102A	≤ -4.2
U13G A16U G42C G84A	≤ -4.2
U13C A21U A52C U55G G67U G80A C105U A150C	≤ -4.2
A12U G81A C85A C99U	-1.62
A12U C57U	-0.208
G11C C85U A97U G124C	-3.4
G11C A40G U82A G94C G140U	≤ -4.2
U13C A121U A142C	-2.44
A12U G50A C85A C87U G133C	≤ -4.2
A12U G84U G100U	≤ -4.2
G11C A19C	-1.41
U13G A17U G88A C96G	≤ -4.2
G11C A26U C69U	≤ -4.2
U13A A41C C43G A60C A138G A150G	≤ -4.2
G11U C14G U127G	≤ -4.2
C10U U13G C14A A28C C54U G92C A113U A122G C129U	≤ -4.2
A12G A52C U55A C118G A120U	-1.84
A12U G34U G50A A52G G67C C85U C96U G141A U148G	≤ -4.2
A12G C54U C57A C75U	-0.0208
A12C U145C	0.192
A12G C38U C57G G62A C93A	-2.77
U13A C54A A91C	≤ -4.2
G11C A122G	-2.55
G11U A26G C54U A142C	≤ -4.2

Variant	polymerase ribozyme fitness (log ratio)
A12C C57U C72A C93G U111G U146G	≤ -4.2
A12U C14G G25C C85G G94A U104C A106U C116G U139C	≤ -4.2
G11A A30G A41C A91U C95G G140C	≤ -4.2
G11U G74A C85A U90C G141A U148C	≤ -4.2
G11A G50A C63U C93U	-1.77
A12C G94A G152C	-3.98
U13A A113U	-2.5
A12C C85U	-1.44
U13C U55A C85A C125U	-1.98
A12C C36U C85U A147U	-1.81
U13A C85U	-1.16
G11A C85U U130G	≤ -4.2
G11A A29G C38G A147C	≤ -4.2
A12G A20U C103A C116A A121U C129A	≤ -4.2
U13A C85U G136U	-3.3
G11A A26C U33G C129A	≤ -4.2
G11U A22G U45G U53G G58C C85U C87A C99G A106U G136A A142U	≤ -4.2
U13G A52G G59C C95A C118U	-2.5
U13G A19U C51U A97U	-2.04
A12U C76G C99U C132G	≤ -4.2
U13A G42C G48C C85A C99G A106G G133U G141C	≤ -4.2
U13C U56A C72U C93A C96U	-3.76
A12C A52G C93U U101C C105U	-2.54
G11U A30U C95U C99U	≤ -4.2

Variant	polymerase ribozyme fitness (log ratio)
A12U G84A G88C A119C G140A	≤ -4.2
A12G C54G G80A U144A	-3.53
G11C A17U A23U C38U C95U A138G	≤ -4.2
A12C U53A C87U	-2
U13A A37U C96U G126U	-2.85
A12G C27G U55A A110G G143A U145G U148G	≤ -4.2
A12U C14A C114G A119G	-3.37
A12U A47U C95U A115G	-2.31
A12C C93U A120G	-0.829
U13A A23U U31A A37C G84U C125A G140A G152U	≤ -4.2
U13A C54A G84U G88U	≤ -4.2
G11A A41C G83C C123G	-2.58
G11U C96U A119C	-1.07
A12G A24G A37C C87G A120G U139G	-4.13
G11U G94C A106G	-1.62
A12G C14U C79G C132A A142U	≤ -4.2
A12U A20C C36G A138C	-4.13
C10U U82A C87G A89U A142U	≤ -4.2
U13A A17U U45C G50A G83C C87U U104G G140A	≤ -4.2
A12U A39U U55A G67U G86U C103U	≤ -4.2
G11A A23C A29C A30U C36U U44A A73U G81A C125U G143U	≤ -4.2
A12G A28C C116A A147C	≤ -4.2
A12U C57U C85G A115C G133U U139C	≤ -4.2
A12U A17C A24G C79U C118U	≤ -4.2

Variant	polymerase ribozyme fitness (log ratio)
U13C C14G G88A	-4
A12U A41C	-0.744
A12C U61A G84U A97U U145C	≤ -4.2
G11C C38U G65U A122U	≤ -4.2
A12G C54A U55G G58C G92A A97U C125G G128U U135C A138G U139A U145G	≤ -4.2
A12G G84C	-1.21
U13G A16U U33G G50C G81C G143A	≤ -4.2
G11A A20C A21U A52G U55C G94C C116U	-4.05
U13A C32A G42A C75A C76U C87G A106C A138U G141C	≤ -4.2
G11C C54U G62A A121U	-2.2
U13A C103A	-2.51
A12U G58C C76U U102G A138C	≤ -4.2
U13C C96A C99U	-1.75
A12U A37C U45A U55A C85U G92A	≤ -4.2
A12U U13G A52U C54A	≤ -4.2
U13G A28U A37C A41G C99U C129A U134C A150C	≤ -4.2
U13G A23C C32U G59U C85G C105G A106U C116G U134A	≤ -4.2
G11A A12U A52G U53C A91U	-4.08
A12U G58A U144C U146A	-3.88
A12C A30C A60G C75G G86U U90G A97C	≤ -4.2
G11U A26U U82A C93A	≤ -4.2
U13A U61A	-1.8
A12C C87U	-0.61
G11A U44A G48A C57U C96U	≤ -4.2

Variant	polymerase ribozyme fitness (log ratio)
A12G A20U A41C C57A A66U C69G A91U C129U	≤ -4.2
A12U C14G A20G A73G U77A G86U C96U G117U	≤ -4.2
A12C G58A A66C G88U A110U	≤ -4.2
A12G A16G A23U C38U C87U G141C G152A	≤ -4.2
A12G U15G A26G C93A A115G	≤ -4.2
U13A A22C G50A G84A A121U	-2.93
A12G G59A A66C C79A C108U C116A	≤ -4.2
A12U A22G U45A A49U A115G	≤ -4.2
G11A G86U C93G	-1.46
A12C U15C C35U G58A U90C G126U	≤ -4.2
G11C C93U U101G G128U	-3.85
A12G A21C C32U U55G	-1.77
G11U G94A G133C	-2.79
A12C A21C C35A G58U U135G	-4.1
G11C U56A C75U U145A	-1.61
A12C U53A U56A	-2.64
A12G U33G C36A G86U A110C C118U C123U	≤ -4.2
A12G C72G G74U G83U U146G	≤ -4.2
G11C A21G A28U C38U C87A G133C U144G A150C	≤ -4.2
A12U G117C U134C	-0.516
G11C A20G A47C	-2.54
A12G C36A U55G G71A C96G C116A U134G	≤ -4.2
U13C A22C U53A C116A	0.349
